These results are taken from paper PMC9831982 (Nature Communications, 2023).

The target in the assay is T1, Slh1 (from SLH1-FTP, released by TEV protease) as imaged by HS-AFM (S. cerevisiae, UniProt P53327 1-1967).
T1 construct: Slh1 (RQT2), S. cerevisiae; The methods describe this purification for the wild-type and the double-mutant trimer; not shown: protein A (behind a TEV site), C-terminal, cleaved
The experiment in a line: HS-AFM; purified complex (5 nM) on mica in RQT-AFM buffer (50 mM Tris pH 7.5, 100 mM NaCl, 10 mM MgCl2, 100 mM L-arginine, 10 µM ZnCl2), room temperature. As to conditions: both partners purified.

T1 sequence (P53327 whole entry): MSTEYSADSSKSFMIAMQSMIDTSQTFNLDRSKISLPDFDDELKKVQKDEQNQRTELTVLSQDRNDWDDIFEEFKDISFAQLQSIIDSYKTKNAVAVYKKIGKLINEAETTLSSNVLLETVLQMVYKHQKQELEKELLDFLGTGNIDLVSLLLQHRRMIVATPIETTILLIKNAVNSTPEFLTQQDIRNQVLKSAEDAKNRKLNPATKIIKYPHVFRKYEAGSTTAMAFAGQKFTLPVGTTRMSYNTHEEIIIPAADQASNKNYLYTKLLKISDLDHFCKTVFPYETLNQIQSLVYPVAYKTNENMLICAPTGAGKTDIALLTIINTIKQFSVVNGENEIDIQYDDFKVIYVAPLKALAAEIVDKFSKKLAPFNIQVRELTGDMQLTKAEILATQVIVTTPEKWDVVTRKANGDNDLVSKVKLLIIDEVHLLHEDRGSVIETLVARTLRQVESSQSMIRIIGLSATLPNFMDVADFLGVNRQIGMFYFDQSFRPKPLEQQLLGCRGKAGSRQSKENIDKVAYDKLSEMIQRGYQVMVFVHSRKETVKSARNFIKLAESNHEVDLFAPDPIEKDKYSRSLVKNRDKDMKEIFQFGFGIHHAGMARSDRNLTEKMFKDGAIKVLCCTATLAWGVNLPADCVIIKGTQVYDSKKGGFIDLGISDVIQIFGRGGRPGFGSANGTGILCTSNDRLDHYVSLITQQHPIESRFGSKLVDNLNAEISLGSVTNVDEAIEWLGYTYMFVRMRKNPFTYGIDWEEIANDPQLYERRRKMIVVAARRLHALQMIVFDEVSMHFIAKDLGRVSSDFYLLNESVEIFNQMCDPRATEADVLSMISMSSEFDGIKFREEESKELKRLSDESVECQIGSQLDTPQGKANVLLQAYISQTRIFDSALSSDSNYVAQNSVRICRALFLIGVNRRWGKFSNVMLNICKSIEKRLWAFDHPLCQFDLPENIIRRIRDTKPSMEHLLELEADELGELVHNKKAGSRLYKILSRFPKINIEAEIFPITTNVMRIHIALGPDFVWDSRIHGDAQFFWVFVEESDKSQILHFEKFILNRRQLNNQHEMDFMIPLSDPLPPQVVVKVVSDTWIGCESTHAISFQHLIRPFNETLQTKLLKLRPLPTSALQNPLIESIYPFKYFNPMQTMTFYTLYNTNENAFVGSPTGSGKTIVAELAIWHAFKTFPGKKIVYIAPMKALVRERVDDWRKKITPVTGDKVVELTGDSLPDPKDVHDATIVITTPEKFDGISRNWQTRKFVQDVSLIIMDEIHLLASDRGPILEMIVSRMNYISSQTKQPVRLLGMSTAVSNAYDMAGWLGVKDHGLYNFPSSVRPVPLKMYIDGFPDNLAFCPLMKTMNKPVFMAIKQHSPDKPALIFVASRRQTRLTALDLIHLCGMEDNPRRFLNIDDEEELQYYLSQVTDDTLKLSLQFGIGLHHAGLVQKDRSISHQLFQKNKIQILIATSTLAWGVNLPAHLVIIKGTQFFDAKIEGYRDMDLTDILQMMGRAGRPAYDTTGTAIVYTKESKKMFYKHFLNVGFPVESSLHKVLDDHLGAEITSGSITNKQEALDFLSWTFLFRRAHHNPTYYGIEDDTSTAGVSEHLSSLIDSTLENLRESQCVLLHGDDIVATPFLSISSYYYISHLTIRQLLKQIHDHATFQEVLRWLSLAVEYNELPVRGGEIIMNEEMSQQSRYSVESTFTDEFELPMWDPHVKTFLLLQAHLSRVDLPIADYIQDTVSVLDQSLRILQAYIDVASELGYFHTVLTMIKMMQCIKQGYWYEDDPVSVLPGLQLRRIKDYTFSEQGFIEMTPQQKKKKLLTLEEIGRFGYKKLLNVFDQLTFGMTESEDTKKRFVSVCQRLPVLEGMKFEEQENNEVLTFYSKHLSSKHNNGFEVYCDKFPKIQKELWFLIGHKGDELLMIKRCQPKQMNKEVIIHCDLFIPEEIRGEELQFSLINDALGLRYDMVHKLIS

B1: Rqt4 as imaged by HS-AFM in the Slh1/Rqt4 complex (natural protein, S. cerevisiae, UniProt P36119 1-530, looked up)
chain: MTRKQAIDYAIKQVPQILPLEESDVKALCEQVLSTSSDDPEQIASKFLEFLGHEDLSFEFVMKFNELLNQNDKKEEKKTKNVHLEHTAPTSWKNESKQPTNNYINKKGDEKPKKLKDEKKSSTTRPTVQPSNQSTQSNPIKEKKEHRSKGKLQSLQEIDEAIKMLELRDSGSSKNCNCQGTRHPVFDIAPNCLHCGKVVCVIEGLNKGKCGHCHEQLISDNERTQMVEILNQEKNELNGSSSSLSNASNGANVPKKKTKTYKITSGMGKNLFAEQDKLFDFIERKRERERKRNEVLKLQEEKEESEAKERQASEHDHKAEENPELLAAQERLDRLLYFQDTSAERTKIIDNASDFDMNQEVGLWGSARERALALKKQQRNLRKWEKVEKERNGRREKYVVSMNIGSNGKVTMTEVPKDTENVIAGSDDDISDISDEEDISDLKHIHALKSEINTTKSLENLHLQSKAWDYERDKKQFDRPTYVKKNSDTAQQNRKTEEKAHDMQAYDLKSRVQVDQNADASVEQNILAVL
notes: Rqt4, S. cerevisiae
With B1, the binding result is recorded as “binds”.

B2: Cue3 as imaged by HS-AFM in the Slh1/Cue3 complex (natural protein, S. cerevisiae, UniProt P53137 1-624, looked up)
chain: MLSRYNRVIEINGGNADISLPIVKFPPFKLRAQLIEKDPVVWLHLIETYVTYFEYLMQGANVELLDESTLDHLRLFLRTYLHEIADEEGKLLSLGINHDVSEQLYLLKGWIFSLIKKCGLLHLQIFGDSLWNLIKVYVRRNPDSIRGLIDGSLKPRINTQRVQLDKSYQVQQHLKQLIESGKFKRIDLRCVEDLLSAKSMQPNKFAENFFTANWIEILEALWAKGQGRGHKEARELIIISLFSVSADRLLKITKELGISNFETLALYPLLGTMLINEGVHKRLPDLKSKLLFLNLGGLSMDEGDHMSYPTSSGTEVNEEQLSALMELFPQFSKYQLSQTLLAYDNNIELVTNKIFEDPTIIEAFSREPAEEEVEPVSDGDNASFTEELSILDRGDSSKNKELDKKIISEGVPDELRNKTLTRALKLLYEADEDERDDTYDEADVNRSDPSKRIGLQEDEESYDTKDDSNEVRQDHNYHIVEAYLWNLLKEDPKLFERSKRGTKVRKTMKEMTSWSDEKIEGWCRMLERSPTRARLLEKKFMFKGNSKTGKTSYVHNRDSQNDGNVVKEQAKQKKSENIKKHEPQSTEQKKRQHAKNEKRKGARANHNRKKGHDKKLARAGNNAI
notes: Cue3 (RQT3), S. cerevisiae
For B2, the binding result was “binds”.
